Measurements: PMC3933655, “An Improved Single Cell Ultrahigh Throughput Screening Method Based on In Vitro Compartmentalization” (PLoS ONE, 2014)
Numbering of substitutions follows the chain as printed. Numbers in names are those of the source.

B1: AFEST (Archaeoglobus fulgidus DSM 4304) (protein)
chain: MLDMPIDPVYYQLAEYFDSLPKFDQFSSAREYREAINRIYEERNRQLSQHERVERVEDRTIKGRNGDIRVRVYQQKPDSPVLVYYHGGGFVICSIESHDALCRRIARLSNSTVVSVDYRLAPEHKFPAAVYDCYDATKWVAENAEELRIDPSKIFVGGDSAGGNLAAAVSIMARDSGEDFIKHQILIYPVVNFVAPTPSLLEFGEGLWILDQKIMSWFSEQYFSREEDKFNPLASVIFADLENLPPALIITAEYDPLRDEGEVFGQMLRRAGVEASIVRYRGVLHGFINYYPVLKAARDAINQIAALLVFD
notes: pET-28a(+) in E. coli BL21-CodonPlus(DE3), Ni-NTA purified; 5' primer starts … (MLDMPI)
B2: AFEST (Archaeoglobus fulgidus DSM 4304; V293G) (protein)
chain: B1 chain with V293G
notes: as for B1
B3: AFEST (Archaeoglobus fulgidus DSM 4304; F287Y/S94G) (protein)
chain: B1 chain with S94G, F287Y
notes: as for B1
B4: AFEST (Archaeoglobus fulgidus DSM 4304; V293E) (protein)
chain: B1 chain with V293E
notes: as for B1

What follows are proteins tested on CCCC(=O)Oc1ccc([N+](=O)[O-])cc1 (assay: hydrolysis kinetics). Settings: 37°C.
Type: biochemical, Archaeoglobus fulgidus
Source text: hydrolysis kinetics on AFEST

Point of comparison: B2, Km 9.74 µM. Against it:
- B1 — 2.3-fold higher, 22.47 µM
- B3 — 1.6-fold higher, 15.42 µM
- B4 — within 1.5-fold, 12.13 µM

Point of comparison: B4, kcat 138 s⁻¹. Against it:
- B1 — within 1.5-fold, 135 s⁻¹
- B2 — within 1.5-fold, 118 s⁻¹
- B3 — within 1.5-fold, 155 s⁻¹

Point of comparison: B2, kcat/Km 1.21e+07 M⁻¹ s⁻¹. Against it:
- B1 — 2-fold lower, 6.03e+06 M⁻¹ s⁻¹
- B3 — within 1.5-fold, 1e+07 M⁻¹ s⁻¹
- B4 — within 1.5-fold, 1.14e+07 M⁻¹ s⁻¹

These proteins were tested on CCCC(=O)Oc1ccc2c(c1)Oc1cc(OC(=O)CCC)ccc1C21OC(=O)c2ccccc21 (assay: cells, lysate or membranes). Settings: bulk reaction; enzyme preparation not told in main text (AFEST displayed on E. coli in the parallel droplet assay).
Type: cell-based, Archaeoglobus fulgidus

Protein B1 has a Km of 240 µM.
